From patent US20050215478A1, “Amino acid sequences capable of facilitating penetration across a biological barrier” (priority 2002, published 2005)
“And” between values parts separate entries of the source, which are not always exact repeats. Equal values may be shown once.

Key:
[1] = Formulation development: recovery of ^125I-IBW-002 after intestine loop injection, urine included (Example 2); type: in vivo, mouse; settings: intestinal loop; for recovered cpm/mouse: blood 60′, organs and urine; for blood 15′, total cpm in the blood / blood 30′, total cpm in the blood / blood 60′, total cpm in the blood / blood 5′, total cpm in the blood / blood 10′, total cpm in the blood / blood 20′, total cpm in the blood: calculated from 50 μl sample assuming 2 ml blood
Method: The mice were anesthetized by i.p. injection of 0.05 ml of a mixture of 0.15 ml xylazine+0.85 ml of ketamin. A 2 cm long incision was made along the center of the abdomen, through the skin and abdominal wall. An intestine loop was gently pulled out through the incision and placed on wet gauze beside the animal. The loop remained intact through the entire procedure and was kept wet during the whole time. The tested compound was injected into the loop, 0.2 ml/ mouse, containing around 200,000 cpm, using a 26G needle. […] The animals were subsequently sacrificed. The following organs were removed: epididymal fat, kidneys, liver, lungs and brain. Radioactivity in each organ and in blood samples was counted. A 5 μl sample of the injected solution was counted to determine the total injected cpm per mouse.
To reach an improved formulation, a number of compounds were tested in experiments similar to that described in Example 1, with the following change: urine was collected and the measured radioactivity was added to that of the recovered tissues. […]
The total radioactive labeling injected per mouse was 195,900 cpm. Total cpm in the blood was calculated based on the 50 μl blood sample drawn out at different time points post injection, in the assumption that total blood volume of each mouse is 2 ml.
The total radioactive labeling injected per mouse was 143,000 cpm. Total cpm in the blood was calculated based on the 50 μl blood sample drawn out at different time points post injection, in the assumption that total blood volume of each mouse is 2 ml.

[2] = Relative potency of penetrating peptides as tested in mice (Example 3); type: in vivo; settings: IBW-002 = 100
Source text: Relative Potency of Penetrating Peptides as Tested in Mice.

[3] = Table 5 formulation (PE 6,200), 125,320 cpm injected per mouse, individual mice, listed as 125I-IBW-002
[4] = Table 5 formulation (PE 6,200), 125,320 cpm injected per mouse, mean of 2 mice
[5] = Table 8 formulation (PE 6,200 + Taurodeoxycholic acid), 195,900 cpm injected per mouse, individual mice, listed as 125I-IBW-002
[6] = Table 8 formulation (PE 6,200 + Taurodeoxycholic acid), 195,900 cpm injected per mouse, mean of 4 mice
[7] = Table 11 formulation (Pluronic F-68 + Taurodeoxycholic acid), 143,000 cpm injected per mouse, individual mice, listed as 125I-IBW-002
[8] = Table 11 formulation (Pluronic F-68 + Taurodeoxycholic acid), 143,000 cpm injected per mouse, mean of 4 mice

Ac-NYYDITLALAGICQSARLVQQLAGGGKGGK-NH2 (Ac-NYYDITLALAGICQSARLVQQLAGGGKGGK-NH2; also: 125I label) [IBW-002, ^125I-labeled using the Bolton Hunter Reagent for in vivo tests]
recovered cpm/mouse [1, 3]: 35,759 cpm and 40,067 cpm
recovered cpm/mouse [1, 4]: 37,913 cpm
blood 15′, total cpm in the blood [1, 3]: 19,920 cpm and 19,560 cpm
blood 30′, total cpm in the blood [1, 3]: 18,800 cpm and 15,880 cpm
blood 60′, total cpm in the blood [1, 3]: 14,560 cpm and 10,960 cpm
blood 15′, total cpm in the blood [1, 4]: 19,740 cpm
blood 30′, total cpm in the blood [1, 4]: 17,340 cpm
blood 60′, total cpm in the blood [1, 4]: 12,760 cpm
blood/injected cpm (%), 15′ [1, 3]: 15.90% and 15.61%
blood/injected cpm (%), 30′ [1, 3]: 15.00% and 12.67%
blood/injected cpm (%), 60′ [1, 3]: 11.62% and 8.75%
brain, cpm recovered [1, 3]: 95 cpm and 110 cpm
epididimal fat, cpm recovered [1, 3]: 321 cpm and 288 cpm
kidney, cpm recovered [1, 3]: 2,564 cpm and 3,799 cpm
liver, cpm recovered [1, 3]: 2,994 cpm and 2,786 cpm
lungs, cpm recovered [1, 3]: 476 cpm and 377 cpm
recovered cpm/injected cpm (%) [1, 3]: 28.53% and 31.97%
urine, cpm recovered [1, 3]: 14,749 cpm and 21,747 cpm
blood/injected cpm (%), 15′ [1, 4]: 15.75%
blood/injected cpm (%), 30′ [1, 4]: 13.84%
blood/injected cpm (%), 60′ [1, 4]: 10.18%
brain, cpm recovered [1, 4]: 103 cpm
epididimal fat, cpm recovered [1, 4]: 305 cpm
kidney, cpm recovered [1, 4]: 3,182 cpm
liver, cpm recovered [1, 4]: 2,890 cpm
lungs, cpm recovered [1, 4]: 427 cpm
recovered cpm/injected cpm (%) [1, 4]: 30.25%
urine, cpm recovered [1, 4]: 18,248 cpm
recovered cpm/mouse [1, 5]: 93,914 cpm and 68,380 cpm and 89,969 cpm and 90,520 cpm
recovered cpm/mouse [1, 6]: 85,446 cpm
blood 15′, total cpm in the blood [1, 5]: 40,600 cpm and 39,440 cpm and 51,920 cpm and 36,200 cpm
blood 30′, total cpm in the blood [1, 5]: 37,440 cpm and 31,720 cpm and 48,440 cpm and 34,720 cpm
blood 60′, total cpm in the blood [1, 5]: 33,880 cpm and 23,080 cpm and 40,840 cpm and 30,200 cpm
blood 15′, total cpm in the blood [1, 6]: 42,040 cpm
blood 30′, total cpm in the blood [1, 6]: 38,080 cpm
blood 60′, total cpm in the blood [1, 6]: 32,000 cpm
blood/injected cpm (%), 15′ [1, 5]: 20.72% and 20.13% and 26.50% and 18.48%
blood/injected cpm (%), 30′ [1, 5]: 19.11% and 16.19% and 24.73% and 17.72%
blood/injected cpm (%), 60′ [1, 5]: 17.29% and 11.78% and 20.85% and 15.42%
brain, cpm recovered [1, 5]: 206 cpm and 176 cpm and 284 cpm and 173 cpm
epididimal fat, cpm recovered [1, 5]: 1,081 cpm and 805 cpm and 903 cpm and 846 cpm
kidney, cpm recovered [1, 5]: 9,513 cpm and 7,878 cpm and 10,661 cpm and 8,929 cpm
liver, cpm recovered [1, 5]: 8,194 cpm and 5,154 cpm and 9,615 cpm and 8,708 cpm
lungs, cpm recovered [1, 5]: 1,048 cpm and 636 cpm and 1,221 cpm and 1,303 cpm
recovered cpm/injected cpm (%) [1, 5]: 47.94% and 34.91% and 45.42% and 46.21%
urine, cpm recovered [1, 5]: 39,992 cpm and 30,651 cpm and 25,445 cpm and 40,361 cpm
blood/injected cpm (%), 15′ [1, 6]: 21.46%
blood/injected cpm (%), 30′ [1, 6]: 19.44%
blood/injected cpm (%), 60′ [1, 6]: 16.33%
brain, cpm recovered [1, 6]: 210 cpm
epididimal fat, cpm recovered [1, 6]: 909 cpm
kidney, cpm recovered [1, 6]: 9,245 cpm
liver, cpm recovered [1, 6]: 7,918 cpm
lungs, cpm recovered [1, 6]: 1,052 cpm
recovered cpm/injected cpm (%) [1, 6]: 43.62%
urine, cpm recovered [1, 6]: 34,112 cpm
recovered cpm/mouse [1, 7]: 78,079 cpm and 67,291 cpm and 64,828 cpm and 79,362 cpm
recovered cpm/mouse [1, 8]: 72,390 cpm
blood 5′, total cpm in the blood [1, 7]: 29,400 cpm and 29,120 cpm and 34,240 cpm and 32,920 cpm
blood 10′, total cpm in the blood [1, 7]: 26,680 cpm and 32,320 cpm and 28,200 cpm and 27,760 cpm
blood 20′, total cpm in the blood [1, 7]: 20,280 cpm and 30,960 cpm and 27,240 cpm and 21,800 cpm
blood 60′, total cpm in the blood [1, 7]: 11,880 cpm and 22,840 cpm and 16,280 cpm and 14,440 cpm
blood 5′, total cpm in the blood [1, 8]: 31,420 cpm
blood 10′, total cpm in the blood [1, 8]: 28,740 cpm
blood 20′, total cpm in the blood [1, 8]: 25,070 cpm
blood 60′, total cpm in the blood [1, 8]: 16,360 cpm
blood/injected cpm (%), 5′ [1, 7]: 20.56% and 20.36% and 23.94% and 23.02%
blood/injected cpm (%), 10′ [1, 7]: 18.66% and 22.60% and 19.72% and 19.41%
blood/injected cpm (%), 20′ [1, 7]: 14.18% and 21.65% and 19.05% and 15.24%
blood/injected cpm (%), 60′ [1, 7]: 8.31% and 15.97% and 11.38% and 10.10%
brain, cpm recovered [1, 7]: 76 cpm and 106 cpm and 94 cpm and 74 cpm
epididimal fat, cpm recovered [1, 7]: 375 cpm and 591 cpm and 462 cpm and 465 cpm
kidney, cpm recovered [1, 7]: 2,397 cpm and 4,407 cpm and 5,018 cpm and 5,772 cpm
liver, cpm recovered [1, 7]: 3,516 cpm and 6,546 cpm and 6,561 cpm and 4,807 cpm
lungs, cpm recovered [1, 7]: 393 cpm and 643 cpm and 582 cpm and 533 cpm
recovered cpm/injected cpm (%) [1, 7]: 54.60% and 47.06% and 45.33% and 55.50%
urine, cpm recovered [1, 7]: 59,442 cpm and 32,158 cpm and 35,831 cpm and 53,271 cpm
blood/injected cpm (%), 5′ [1, 8]: 21.97%
blood/injected cpm (%), 10′ [1, 8]: 20.10%
blood/injected cpm (%), 20′ [1, 8]: 17.53%
blood/injected cpm (%), 60′ [1, 8]: 11.44%
brain, cpm recovered [1, 8]: 88 cpm
epididimal fat, cpm recovered [1, 8]: 473 cpm
kidney, cpm recovered [1, 8]: 4,399 cpm
liver, cpm recovered [1, 8]: 5,358 cpm
lungs, cpm recovered [1, 8]: 538 cpm
recovered cpm/injected cpm (%) [1, 8]: 50.62%
urine, cpm recovered [1, 8]: 45,176 cpm
Relative potency (%) [2]: 100%
